Kd data for 6 molecules are collected here from publication PMC8033513 (2021).

For orientation: Kd means the equilibrium constant for the complex coming apart. Read a high Kd as weaker binding.

The chains are these.
B1: extra‐cellular domain (ECD) of human UNC5H1 (domain or fragment)
chain: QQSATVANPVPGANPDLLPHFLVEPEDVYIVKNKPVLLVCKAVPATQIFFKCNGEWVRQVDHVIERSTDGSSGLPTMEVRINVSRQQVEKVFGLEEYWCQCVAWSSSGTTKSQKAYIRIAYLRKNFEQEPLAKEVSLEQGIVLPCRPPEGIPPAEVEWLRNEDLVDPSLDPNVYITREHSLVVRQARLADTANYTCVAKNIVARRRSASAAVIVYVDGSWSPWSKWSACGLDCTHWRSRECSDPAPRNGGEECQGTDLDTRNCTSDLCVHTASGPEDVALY
B3: extra‐cellular domain (ECD) of mouse DCC (Fc fusion)
chain: HLQVTGFQIKPFTSLHFVSEPSDAVTMRGGNVLLNCSAESDRGVPVIKWKKDGLILALGMDDRKQQLPNGSLLIQNILHSRHHKPDEGLYQCEASLADSGSIISRTAKVTVAGPLRFLSQTESITAFMGDTVLLKCEVIGEPMPTIHWQKNQQDLNPLPGDSRVVVLPSGALQISRLQPGDSGVYRCSARNPASIRTGNEAEVRILSDPGLHRQLYFLQRPSNVIAIEGKDAVLECCVSGYPPPSFTWLRGEEVIQLRSKKYSLLGGSNLLISNVTDDDSGTYTCVVTYKNENISASAELTVLVPPWFLNHPSNLYAYESMDIEFECAVSGKPVPTVNWMKNGDVVIPSDYFQIVGGSNLRILGVVKSDEGFYQCVAENEAGNAQSSAQLIVPKPAIPSSSILPSAPRDVLPVLVSSRFVRLSWRPPAEAKGNIQTFTVFFSREGDNRERALNTTQPGSLQLTVGNLKPEAMYTFRVVAYNEWGPGESSQPIKVATQPELQVPGPVENLHAVSTSPTSILITWEPPAYANGPVQGYRLFCTEVSTGKEQNIEVDGLSYKLEGLKKFTEYTLRFLAYNRYGPGVSTDDITVVTLSDVPSAPPQNISLEVVNSRSIKVSWLPPPSGTQNGFITGYKIRHRKTTRRGEMETLEPNNLWYLFTGLEKGSQYSFQVSAMTVNGTGPPSNWYTAETPENDLDESQVPDQPSSLHVRPQTNCIIMSWTPPLNPNIVVRGYIIGYGVGSPYAETVRVDSKQRYYSIERLESSSHYVISLKAFNNAGEGVPLYESATTRSITDPTDPVDYYPLLDDFPTSGPDVSTPMLPPVGVQAVALTHEAVRVSWADNSVPKNQKTSDVRLYTVRWRTSFSASAKYKSEDTTSLSYTATGLKPNTMYEFSVMVTKNRRSSTWSMTAHATTYEAAPTSAPKDLTVITREGKPRAVIVSWQPPLEANGKITAYILFYTLDKNIPIDDWIMETISGDRLTHQIMDLSLDTMYYFRIQARNVKGVGPLSDPILFRTLKVEHPDKMANDQGRHGDGGYWPVDTNLIDRSTLNEPPIGQMHPPHGSVTPQKNSN
B4: extra‐cellular domain (ECD) of mouse Neogenin (Fc fusion)
chain: RPASGAAATKSGSPPQSAGASVRTFTPFYFLVEPVDTLSVRGSSVILNCSAYSEPSPNIEWKKDGTFLNLESDDRRQLLPDGSLFISNVVHSKHNKPDEGFYQCVATVDNLGTIVSRTAKLTVAGLPRFTSQPEPSSVYVGNSAILNCEVNADLVPFVRWEQNRQPLLLDDRIVKLPSGTLVISNATEGDGGLYRCIVESGGPPKFSDEAELKVLQDPEEIVDLVFLMRPSSMMKVTGQSAVLPCVVSGLPAPVVRWMKNEEVLDTESSGRLVLLAGGCLEISDVTEDDAGTYFCIADNGNKTVEAQAELTVQVPPGFLKQPANIYAHESMDIVFECEVTGKPTPTVKWVKNGDVVIPSDYFKIVKEHNLQVLGLVKSDEGFYQCIAENDVGNAQAGAQLIILEHDVAIPTLPPTSLTSATTDHLAPATTGPLPSAPRDVVASLVSTRFIKLTWRTPASDPHGDNLTYSVFYTKEGVARERVENTSQPGEMQVTIQNLMPATVYIFKVMAQNKHGSGESSAPLRVETQPEVQLPGPAPNIRAYATSPTSITVTWETPLSGNGEIQNYKLYYMEKGTDKEQDIDVSSHSYTINGLKKYTEYSFRVVAYNKHGPGVSTQDVAVRTLSDVPSAAPQNLSLEVRNSKSIVIHWQPPSSTTQNGQITGYKIRYRKASRKSDVTETLVTGTQLSQLIEGLDRGTEYNFRVAALTVNGTGPATDWLSAETFESDLDETRVPEVPSSLHVRPLVTSIVVSWTPPENQNIVVRGYAIGYGIGSPHAQTIKVDYKQRYYTIENLDPSSHYVITLKAFNNVGEGIPLYESAVTRPHTDTSEVDLFVINAPYTPVPDPTPMMPPVGVQASILSHDTIRITWADNSLPKHQKITDSRYYTVRWKTNIPANTKYKNANATTLSYLVTGLKPNTLYEFSVMVTKGRRSSTWSMTAHGATFELVPTSPPKDVTVVSKEGKPRTIIVNWQPPSEANGKITGYIIYYSTDVNAEIHDWVIEPVVGNRLTHQIQELTLDTPYYFKIQARNSKGMGPMSEAVQFRTPKADSSDKMPNDQALGSAGKGSRLPDLGSDYKPPMSGSNSPHGSPTSPLDSNML
B5: extra‐cellular domain (ECD) of rat UNC5H2 (Fc fusion)
chain: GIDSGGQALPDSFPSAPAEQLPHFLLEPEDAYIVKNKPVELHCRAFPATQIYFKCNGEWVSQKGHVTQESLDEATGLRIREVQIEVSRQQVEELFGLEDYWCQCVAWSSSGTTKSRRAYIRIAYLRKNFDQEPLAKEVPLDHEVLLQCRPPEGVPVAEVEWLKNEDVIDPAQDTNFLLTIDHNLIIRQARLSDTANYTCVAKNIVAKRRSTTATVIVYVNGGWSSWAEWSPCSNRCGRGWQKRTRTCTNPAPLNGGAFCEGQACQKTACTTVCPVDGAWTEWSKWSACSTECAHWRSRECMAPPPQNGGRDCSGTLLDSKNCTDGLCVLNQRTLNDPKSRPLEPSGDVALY
B6: extra‐cellular domain (ECD) of human UNC5H3 (domain or fragment)
chain: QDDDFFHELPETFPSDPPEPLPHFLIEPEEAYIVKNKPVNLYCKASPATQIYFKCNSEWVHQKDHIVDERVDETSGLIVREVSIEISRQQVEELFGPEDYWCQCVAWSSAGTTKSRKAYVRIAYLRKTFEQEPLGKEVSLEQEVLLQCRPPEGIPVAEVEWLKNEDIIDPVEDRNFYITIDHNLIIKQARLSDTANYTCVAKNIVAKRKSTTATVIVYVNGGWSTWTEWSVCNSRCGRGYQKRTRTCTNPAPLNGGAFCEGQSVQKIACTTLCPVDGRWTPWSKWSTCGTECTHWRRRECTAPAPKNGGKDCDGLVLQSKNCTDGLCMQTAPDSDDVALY

What all share (experiment): BLI
(In general: BLI is a label-free optical method that tracks binding on a fibre tip over time.)

One assay addresses human netrin‐1 (human, UniProt O95631 25-604).
Assay [1] addresses B6.
For assay [2], the target named is B3.
Assay [3] deals with B5.
The target of assay [4] is B1.
The target in assay [5] is B4.

Molecule B1 had a Kd with human netrin‐1 of 12.2 nM.

B2: chicken netrin‐2L (netrin‐2‐like) (ligand)
chain: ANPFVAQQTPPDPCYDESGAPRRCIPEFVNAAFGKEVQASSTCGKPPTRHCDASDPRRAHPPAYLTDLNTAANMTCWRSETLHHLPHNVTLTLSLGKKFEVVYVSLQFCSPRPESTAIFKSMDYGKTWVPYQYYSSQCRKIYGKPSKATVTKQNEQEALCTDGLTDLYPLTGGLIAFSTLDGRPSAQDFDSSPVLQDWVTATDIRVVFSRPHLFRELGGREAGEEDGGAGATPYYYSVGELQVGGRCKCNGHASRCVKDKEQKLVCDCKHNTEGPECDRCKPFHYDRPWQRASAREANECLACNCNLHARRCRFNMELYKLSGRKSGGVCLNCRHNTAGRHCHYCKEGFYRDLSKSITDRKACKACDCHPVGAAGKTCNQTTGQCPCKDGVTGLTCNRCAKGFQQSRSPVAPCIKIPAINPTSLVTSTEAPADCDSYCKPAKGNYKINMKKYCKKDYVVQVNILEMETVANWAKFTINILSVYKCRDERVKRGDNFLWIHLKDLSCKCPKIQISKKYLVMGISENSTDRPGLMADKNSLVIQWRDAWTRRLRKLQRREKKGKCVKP
As for B2, the Kd came to 4.3 nM in assay [1]; 31 nM in assay [2]; 8.8 nM in assay [3]; 106 nM in assay [4]; 51.7 nM in assay [5]. B3 gave a Kd with human netrin‐1 of 6.3 nM. In other words, the single-digit nanomolar range. On the same count and under the same terms, the value for B4 was 7.8 nM. Consider B5, for which, in the assay with human netrin‐1, binding was put at a Kd of 6.9 nM. Take B6: the Kd in the assay with human netrin‐1 turned out to be 5.4 nM.
